The values that follow come from publication PMC7512442.

The target of the data set is T1, RBM22 (pre-mRNA-splicing factor RBM22) (Homo sapiens, UniProt Q9NW64 1-420).
T1 sequence: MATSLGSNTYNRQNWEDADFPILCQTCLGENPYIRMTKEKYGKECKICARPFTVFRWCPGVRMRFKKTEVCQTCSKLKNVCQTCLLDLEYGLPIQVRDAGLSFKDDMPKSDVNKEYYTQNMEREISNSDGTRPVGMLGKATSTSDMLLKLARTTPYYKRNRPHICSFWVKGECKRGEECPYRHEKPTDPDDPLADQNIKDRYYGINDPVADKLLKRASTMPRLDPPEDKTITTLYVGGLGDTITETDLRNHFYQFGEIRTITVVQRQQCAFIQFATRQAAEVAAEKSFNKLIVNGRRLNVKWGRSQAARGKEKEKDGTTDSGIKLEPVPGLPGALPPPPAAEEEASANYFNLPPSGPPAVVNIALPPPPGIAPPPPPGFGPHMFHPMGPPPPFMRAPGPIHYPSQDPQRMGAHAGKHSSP
Briefly: EMSA.

Consider GGGGAUCCACAUGGUUCUUGCCUUUU (ssRNA) [human U5 snRNA fragment (nonspecific control)], for which the binding result is reported as “no binding”.
